Data taken from US20230348603A1 (VERSEAU THERAPEUTICS, published 2023).

Experiments:
Human VSIG4-L-Fc [1] = target: T1, Human VSIG4-L-Fc (human); test: ELISA, Fab P.E. 1:5 on coated antigen;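 note: mouse Fab P.E. samples in 1% skimmed milk PBS, bound to antigen-coated wells for 1 h at room temperature, read as absorbance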
T1 construct: also called hVSIG4-L-Fc; hVSIG4-L
Method: (§1) Coated microplates were blocked with dried skimmed milk at 4% in PBS. P.E. samples of the mouse unique Fab sequences were diluted 1:5 in assay buffer (1% dried skimmed milk in PBS), and 100 μl of diluted sample was added onto the coated wells and incubated for one hour at room temperature. […] Optical density (OD) at 450 nm was determined using a standard absorbance microplate reader.

[2] = target: T2, Cynomolgus Monkey VSIG4-L-His (cynomolgus monkey); test: ELISA, Fab P.E. 1:5 on coated antigen;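 note: mouse Fab P.E. samples in 1% skimmed milk PBS, bound to antigen-coated wells for 1 h at room temperature, read as absorbance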
T2 construct: ECD with His tag; also called cyVSIG4-L; cyno VSIG4-L-His
T2 chain: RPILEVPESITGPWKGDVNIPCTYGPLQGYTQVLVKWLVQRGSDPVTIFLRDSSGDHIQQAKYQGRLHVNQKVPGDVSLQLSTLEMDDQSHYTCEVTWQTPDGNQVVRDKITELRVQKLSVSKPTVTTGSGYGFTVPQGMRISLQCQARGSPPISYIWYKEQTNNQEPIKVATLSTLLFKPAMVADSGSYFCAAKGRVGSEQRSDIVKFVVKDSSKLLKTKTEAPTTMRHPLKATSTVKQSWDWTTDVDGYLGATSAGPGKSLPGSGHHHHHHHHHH
Method: as §1

Human VSIG4-S-Fc = target: T3, Human VSIG4-S-Fc (human); test: ELISA, Fab P.E. 1:5 on coated antigen;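 note: mouse Fab P.E. samples in 1% skimmed milk PBS, bound to antigen-coated wells for 1 h at room temperature, read as absorbance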
T3 construct: short isoform ECD fused to human Fc1; also called hVSIG4-S
Method: as §1

Human VSIG4-L-His = target: T4, Human VSIG4-L-His (human, UniProt Q9Y279 20-283); test: SPR (Biacore T200), Fab P.E. 1:5 over immobilised antigen
T4 construct: long isoform ECD with His tag; also called hVSIG4-L
T4 sequence: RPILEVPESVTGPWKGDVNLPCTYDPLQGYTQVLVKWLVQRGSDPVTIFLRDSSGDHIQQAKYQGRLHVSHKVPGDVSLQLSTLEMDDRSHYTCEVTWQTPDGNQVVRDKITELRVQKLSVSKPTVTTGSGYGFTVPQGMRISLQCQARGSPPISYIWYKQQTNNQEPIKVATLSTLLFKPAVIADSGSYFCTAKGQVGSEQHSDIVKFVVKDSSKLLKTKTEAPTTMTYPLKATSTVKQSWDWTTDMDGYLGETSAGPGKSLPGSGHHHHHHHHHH
Method: Off-rate values of the mouse unique Fab clones were determined using surface plasmon resonance (SPR) in Biacore™ T200 equipment (GE Healthcare, Chicago, IL). […] The immobilization was performed in accordance with a method provided by Biacore and by using the NHS/EDC kit (GE Healthcare, Chicago, IL). […] Sixty μl of Fab P.E. samples, diluted 1:5 in HBS-EP+ assay buffer (0.1 M HEPES, 1.5 M NaCl, 0.03 M EDTA and 0.5% v/v Surfactant P20), were injected and passed through the flow cells at a flow rate of 30 μl/min. After binding of the samples to VSIG4 protein, the off-rate was monitored for a period of five minutes. The flow cell surface was regenerated by a double injection of 10 μl of 1 mM glycine at pH 1.5 in 1 M sodium chloride at 30 μl/min. Off-rate analysis was done using the BIAevaluation software (GE Healthcare, Chicago, IL) and using a 1:1 dissociation kinetic fit curve.

Human VSIG4-L-Fc [3] = target: T1, Human VSIG4-L-Fc; test: blocking ELISA, biotin-C3b on coated hVSIG4-L-Fc
Method: (§2) Coated microplates were blocked with casein (Sigma-Aldrich, St. Louis, MO) at 1% in PBS. […] One hundred ill of the mixed sample was added onto the coated wells and incubated for one hour at room temperature. […] OD at 450 nm was determined using a standard absorbance microplate reader.

Human VSIG4-L-Fc [4] = target: T1, Human VSIG4-L-Fc; test: blocking ELISA, biotin-iC3b on coated hVSIG4-L-Fc
Method: as §2

T1 sequence (chain, as listed by the source limits assumed): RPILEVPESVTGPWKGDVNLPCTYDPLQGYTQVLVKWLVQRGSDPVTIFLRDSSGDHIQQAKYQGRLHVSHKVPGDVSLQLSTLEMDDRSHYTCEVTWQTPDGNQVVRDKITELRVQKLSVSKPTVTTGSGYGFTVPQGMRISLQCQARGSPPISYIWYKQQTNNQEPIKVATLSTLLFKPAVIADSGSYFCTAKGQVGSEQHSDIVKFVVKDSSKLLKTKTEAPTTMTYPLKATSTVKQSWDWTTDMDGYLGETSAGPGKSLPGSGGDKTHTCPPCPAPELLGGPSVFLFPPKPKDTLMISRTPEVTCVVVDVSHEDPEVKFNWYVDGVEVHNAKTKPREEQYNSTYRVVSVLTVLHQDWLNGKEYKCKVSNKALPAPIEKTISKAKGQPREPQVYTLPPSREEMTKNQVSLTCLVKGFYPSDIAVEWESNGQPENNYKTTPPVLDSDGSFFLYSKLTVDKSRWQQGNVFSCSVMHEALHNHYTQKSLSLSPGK

B1: 13H11 mouse Fab (periplasmic extract) (Fab, V domains shown)
VH: QIQLVQSGPELKKPGETVKISCKASGYTFENFGMNWVKQAPGKGLKWMGWINTYTGEATYADDFKGRFAFSLETSASTAYLQINNLKNEDTATYFCARDGGFRHFDVWGAGTTVTVSS
VL: ETTVTQSPASLSVATGEKVTIRCITSTDIDDDMNWYQQKPGEPPKLLISEGNTLRPGVPSRFSSSGYGTDFVFTIENMLSEDVADYYCLQSDNLPLTFGAGTKLELK
notes: mouse Fab with C-terminal His6-c-myc tag
B1 was tested, and the “ELISA OD450” value (Human VSIG4-L-Fc [1]) was 4.33 OD450, the “ELISA OD450” value [2] was 4.34 OD450 and the “ELISA OD450” value (Human VSIG4-S-Fc) was 0.06 OD450. The koff (Human VSIG4-L-His) was 0.045 s⁻¹ and the “Percent Blocking C3b” value (Human VSIG4-L-Fc [3]) was 46.9%.

B2: 15A06 mouse Fab (periplasmic extract) (Fab, V domains shown)
VH: QVQMKQSGPSLVRPSQTLSLTCSVTGDSITSGYWNWIRKFPGDKFEYLGYISYSGFTYYNPSLKSRVSITRDTSKNQYYLQLHSVTTEDTATYYCASSKYGSSLGFPYWGQGTLVTVSA
VL: DVVMTQTPLSLPVSLGDQASISCRSSQSLVHSNGNTYLHWYLQKPGQSPKLLIYKVSNRFSGVPDRFSGSGSGTDFTLKISRVEAEDLGVYFCSQSTHVPFTFGSGTKLEIK
notes: as for B1
In the case of B2, the “ELISA OD450” value (Human VSIG4-L-Fc [1]) is reported as 4.42 OD450, the “ELISA OD450” value [2] is reported as 0.05 OD450 and the “ELISA OD450” value (Human VSIG4-S-Fc) is reported as 0.06 OD450. For the same binder, the koff (Human VSIG4-L-His) was 0.0015 s⁻¹ and the “Percent Blocking iC3b” value (Human VSIG4-L-Fc [4]) was 1.4%.

B3: 15C03 mouse Fab (periplasmic extract) (Fab, V domains shown)
VH: EVKLLESGPGLVKPSQSLSLTCTVTGYSITSDYAWNWIRQFPGNKLEWMGYISYSGSTRYNPSLKSRISITRDTSNNQFFLQLNSVTTEDTATYYCARSGYAAMDYWGQGTSVTVSS
VL: ENVLTQSPAIMSASPGEKVTMTCRASSSVSSSYLHWYQQKSGASPKLWIYSTSNLASGVPARFSGSGSGTSYSLTISSVEAEDAATYYCQQYSGYPLTFGSGTKLEIK
notes: as for B1
With B3 the “ELISA OD450” value (Human VSIG4-L-Fc [1]) was 4.2 OD450, the “ELISA OD450” value [2] was 0.05 OD450 and the “ELISA OD450” value (Human VSIG4-S-Fc) was 4.05 OD450. The koff (Human VSIG4-L-His) was 0.0076 s⁻¹ and the “Percent Blocking C3b” value (Human VSIG4-L-Fc [3]) was 42.7%.
